Source: patent publication US6939679 (RIKEN, dated 2005)

Biological target: T1, Mus 16-3-3 epsilon (mouse, UniProt P62259 1-255)
T1 construct: VP16 fusion as in the yeast two-hybrid screen; also called 14-3-3 E; 14-3-3 epsilon
T1 sequence: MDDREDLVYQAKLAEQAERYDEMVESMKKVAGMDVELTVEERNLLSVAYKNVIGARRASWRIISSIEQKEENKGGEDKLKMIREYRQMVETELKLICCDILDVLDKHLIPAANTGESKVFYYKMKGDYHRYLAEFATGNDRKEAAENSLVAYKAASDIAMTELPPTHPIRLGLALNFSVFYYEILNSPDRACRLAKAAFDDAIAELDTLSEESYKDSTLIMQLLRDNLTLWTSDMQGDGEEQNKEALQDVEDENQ
Assay: yeast two-hybrid, lexA-NADE bait against VP16 mouse embryo cDNA library; His selection, beta-gal assay and mating test

B1: NADE-lexA fusion protein (other)
chain: MANVHQENEEMEQPLQNGQEDRPVGGGEGHQPAANNNNNNHNHNHNHHRRGQARRLAPNFRWAIPNRQMNDGLGGDGDDMEMFMEEMREIRRKLRELQLRNCLRILMGELSNHHDHHDEFCLMP
notes: range 1-124; Bait of the yeast two-hybrid screen; also called pBTM116-NADE; lexA-X fusion protein
- binding result: binds
